Kd data for two molecules are collected here from paper PMC3902943.

The target of this data set is streptavidin (SA) (UniProt P22629 25-183). In words: EMSA.
Sequence of streptavidin (SA) (P22629 25-183): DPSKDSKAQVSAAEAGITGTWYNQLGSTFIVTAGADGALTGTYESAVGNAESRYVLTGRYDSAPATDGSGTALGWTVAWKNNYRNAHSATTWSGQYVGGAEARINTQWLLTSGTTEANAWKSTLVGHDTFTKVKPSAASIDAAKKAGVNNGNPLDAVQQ

B1: S1m aptamer (60 nt) (structured_RNA)
RNA: AUGCGGCCGCCGACCAGAAUCAUGCAAGUGCGUAAGAUAGUCGCGGGUCGGCGGCCGCAU
With B1, the Kd (commonly a measure of binding affinity in units of concentration) was determined as 0.029 µM. In other words, the double-digit nanomolar range.

In turn, ACCGACCAGAAUCAUGCAAGUGCGUAAGAUAGUCGCGGGCCGGG (structured_RNA) [S1 aptamer (44 nt)] had a Kd of 0.059 µM.
